In patent US20240002533A1 (Merck Sharp & Dohme, published 2024):

T1: human arginase 1, trimeric (full-length untagged hArg1 expressed in E. coli) (human, UniProt P05089 1-322)
T1 sequence: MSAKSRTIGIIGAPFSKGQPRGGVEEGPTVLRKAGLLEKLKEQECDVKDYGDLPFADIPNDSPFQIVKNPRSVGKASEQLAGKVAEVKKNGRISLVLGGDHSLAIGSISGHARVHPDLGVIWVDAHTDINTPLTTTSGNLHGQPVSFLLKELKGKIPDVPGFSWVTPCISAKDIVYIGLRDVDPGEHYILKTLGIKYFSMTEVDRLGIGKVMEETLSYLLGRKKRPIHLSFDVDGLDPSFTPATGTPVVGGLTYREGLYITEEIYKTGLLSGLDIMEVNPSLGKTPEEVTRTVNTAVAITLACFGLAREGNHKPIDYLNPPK

B1: Antibody mAb1 (chimeric: human VH1 and VL on a mouse IgG2a/kappa constant domain backbone) (antibody)
heavy: QVQLVQSGAEVKKPGASVKVSCKASGYTFTNYGISWVRQAPGQGLEWMGWISAYNGNTNYAQKLQGRVTMTTDTSTSTAYMELRSLRSDDTAVYYCAREGAYGYRSPYHNWFDPWGQGTLVTVSSAKTTAPSVYPLAPVCGDTTGSSVTLGCLVKGYFPEPVTLTWNSGSLSSGVHTFPAVLQSDLYTLSSSVTVTSSTWPSQSITCNVAHPASSTKVDKKIEPRGPTIKPCPPCKCPAPNLLGGPSVFIFPPKIKDVLMISLSPIVTCVVVDVSEDDPDVQISWFVNNVEVHTAQTQTHREDYNSTLRVVSALPIQHQDWMSGKEFKCKVNNKDLPAPIERTISKPKGSVRAPQVYVLPPPEEEMTKKQVTLTCMVTDFMPEDIYVEWTNNGKTELNYKNTEPVLDSDGSYFMYSKLRVEKKNWVERNSYSCSVVHEGLHNHHTTKSFSRTPGK
light: EIVMTQSPATLSLSPGERATLSCRASQSVSSYLAWYQQKPGQAPRLLIYDASNRATGIPARFSGSGSGTDFTLTISSLEPEDFAVYYCQQHSLLPRTFGGGTKVEIKRTVAAPTVSIFPPSSEQLTSGGASVVCFLNNFYPKDINVKWKIDGSERQNGVLNSWTDQDSKDSTYSMSSTLTLTKDEYERHNSYTCEATHKTSTSPIVKSFNRNEC
B2: Antibody mAb2 (chimeric: human VH1 and VL on a mouse IgG1 D265A/kappa constant domain backbone) (antibody)
heavy: QVQLVQSGAEVKKPGASVKVSCKASGYTFTNYGISWVRQAPGQGLEWMGWISAYNGNTNYAQKLQGRVTMTTDTSTSTAYMELRSLRSDDTAVYYCAREGAYGYRSPYHNWFDPWGQGTLVTVSSAKTTPPSVYPLAPGSAAQTNSMVTLGCLVKGYFPEPVTVTWNSGSLSSGVHTFPAVLQSDLYTLSSSVTVPSSTWPSETVTCNVAHPASSTKVDKKIVPRDCGCKPCICTVPEVSSVFIFPPKPKDVLTITLTPKVTCVVVAISKDDPEVQFSWFVDDVEVHTAQTQPREEQFNSTFRSVSELPIMHQDWLNGKEFKCRVNSAAFPAPIEKTISKTKGRPKAPQVYTIPPPKEQMAKDKVSLTCMITDFFPEDITVEWQWNGQPAENYKNTQPIMDTDGSYFVYSKLNVQKSNWEAGNTFTCSVLHEGLHNHHTEKSLSHSPGK
light: B1 light

Molecular target: T1, human arginase 1, trimeric (full-length …)
Experiment: cell-based or functional assay

Row | Binder | IC50 (% inhibition of hArg1 activity, arginine to ornithine by LC-MS) [nM]
1 | B1 | 3.3
2 | B2 | 5.3
